According to patent US6858210B1, “Therapeutic and diagnostic domain 1 β2GPI polypeptides and methods of using same” (La Jolla Pharmaceutical Co., priority 1998, dated 2005):

B1: 123--: recombinant β2GPI deletion mutant with domains 1, 2, 3 (protein)
chain: GRTCPKPDDLPFSTVVPLKTFYEPGEEITYSCKPGYVSRGGMRKFICPLTGLWPINTLKCTPRVCPFAGILENGAVRYTTFEYPNTISFSCNTGFYLNGADSAKCTEEGKWSPELPVCAPIICPPPSIPTFATLRVYKPSAGNNSLYRDTAVFECLPQHAMFGNDTITCTTHGNWTKLPECGHHHHHH
B2: 1234-: recombinant β2GPI deletion mutant with domains 1, 2, 3, 4 (protein)
chain: GRTCPKPDDLPFSTVVPLKTFYEPGEEITYSCKPGYVSRGGMRKFICPLTGLWPINTLKCTPRVCPFAGILENGAVRYTTFEYPNTISFSCNTGFYLNGADSAKCTEEGKWSPELPVCAPIICPPPSIPTFATLRVYKPSAGNNSLYRDTAVFECLPQHAMFGNDTITCTTHGNWTKLPECREVKCPFPSRPDNGFVNYPAKPTLYYKDKATFGCHDGYSLDGPEEIECTKLGNWSAMPSCGHHHHHH
B3: --345: recombinant β2GPI deletion mutant with domains 3, 4, 5 (protein)
chain: GRIICPPPSIPTFATLRVYKPSAGNNSLYRDTAVFECLPQHAMFGNDTITCTTHGNWTKLPECREVKCPFPSRPDNGFVNYPAKPTLYYKDKATFGCHDGYSLDGPEEIECTKLGNWSAMPSCKASCKLPVKKATVVYQGERVKIQEKFKNGMLHGDKVSFFCKNKEKKCSYTEDAQCIDGTIEVPKCFKEHSSLAFWKTDASDVKPCGHHHHHH

The molecules below were run on affinity purified β2GPI-dependent antiphospholipid antibody (assay: Direct binding ELISA, nickel chelate-coated wells charged with recombinant β2GPI proteins (no cardiolipin)). Details: Ab 6203; O.D. at 550 nm.
Design: species or system human
Protocol: (§1) Nickel Chelate-coated microwell plates (NCP 010 00 Xenopore Corp. 374 Midland Ave. Saddle Brook, N.J. USA) were coated with 50 μl of serial dilutions of the various recombinant β2GPI, in PBS, at room temperature for 2 hours. The plates were washed three times with PBS and blocked with 75 μl of a 1% gelatin (Sigma #G-2500) in PBS for one hour room temperature. […] The plates were washed three times with PBS, 50 μl of alkaline phosphatase conjugated anti-immunoglobulin (anti-human IgG, gamma chain specific, Zymed #62-8422) or anti-rabbit IgG (Zymed #62-6122) diluted appropriately in 1% gelatin was added and incubated at 37° C. for one hour. The plates were washed three times with PBS, 50 μl of alkaline phosphatase PPMP chromogenic substrate solution was added and incubated for 30 minutes at room temperature. The optical density, at 550 nm, was determined by reading the plates in a microplate autoreader (Bio-Teck Instruments, model EL311).
(§2) Seven to nine different recombinant β2GPI mutant proteins were examined to determine if they could support the direct binding of affinity purified β2GPI-dependent antiphospholipid antibody preparations in the absence of anionic phospholipid. All recombinant mutant β2GPI were assayed with affinity purified β2GPI-dependent antiphospholipid antibody preparations from 11 different patients. Each mutant recombinant β2GPI protein was tested, in a dose dependent fashion and GST-6his was included as a negative control. The recombinant mutant β2GPI proteins were bound to nickel coated microtiter plates via their 6-his tail. All recombinant mutant β2GPI proteins tested bound rabbit anti-β2GPI showing that they were assessable by antibody (FIG. 5).

Molecule	Maximum O.D.
B1	0.938
B2	0.668
B3	0.072

Same assay, conditions: Ab 6501; O.D. at 550 nm

Molecule	Maximum O.D.
B1	0.909
B2	0.628
B3	0.030

Same assay, conditions: Ab 6626; O.D. at 550 nm

Molecule	Maximum O.D.
B1	1.250
B2	0.563
B3	0.022

Same assay, conditions: Ab 6632; O.D. at 550 nm

Molecule	Maximum O.D.
B1	0.121
B2	0.003
B3	0.004

Same assay, conditions: Ab 6641; O.D. at 550 nm

Molecule	Maximum O.D.
B1	0.530
B2	0.145
B3	0.019

Same assay, conditions: Ab 6644; O.D. at 550 nm

Molecule	Maximum O.D.
B1	1.020
B2	0.768
B3	0.048

Same assay, conditions: Ab 6652; O.D. at 550 nm

Molecule	Maximum O.D.
B1	0.320
B2	0.135
B3	0.016

Same assay, conditions: Ab 6701; O.D. at 550 nm

Molecule	Maximum O.D.
B1	0.841
B2	0.715
B3	0.002

Same assay, conditions: Ab 7008; O.D. at 550 nm

Molecule	Maximum O.D.
B1	0.360
B2	0.149
B3	0.018

Same assay, conditions: Ab 7015; O.D. at 550 nm

Molecule	Maximum O.D.
B1	1.160
B2	0.454
B3	0.042

Same assay, conditions: Ab 7101; O.D. at 550 nm

Molecule	Maximum O.D.
B1	0.951
B2	0.843
B3	0.042

These molecules were tested on affinity purified β2GPI-dependent antiphospholipid antibody (assay: Competitive inhibition ELISA: recombinant β2GPI proteins compete for antibody binding to coated full length recombinant β2GPI). Details: Ab 6203.
Design: species or system human
Protocol: Microtiter plates (MaxiSorp™, Nalge Nunc International, Denmark) were coated with 50 μl of full length recombinant β2GPI at 10 μg/ml in 0.1 M bicarbonate, pH 9.5, incubated overnight at 4° C., washed three times with 0.15 M PBS, pH 7.2, and blocked for one hour at room temperature with 75 μl of 2% Non-fat Dried Milk (Carnation, 2% NFDM). Test inhibitors were diluted in 2% NFDM and 25 μl of each dilution was added to coated wells. Affinity purified β2GPI-dependent antiphospholipid antibody was diluted in 2% NFDM and 25 μl, of a constant concentration, was added to the wells, including a group of wells that had no inhibitor, which acted as the positive controls. The contents of the wells were mixed and the plates were incubated at 37° C. for one hour. The plates were washed three times with PBS, 50 μl of alkaline phosphatase conjugated anti-human IgG, gamma chain specific, (Zymed #62-8422) diluted appropriately in 2% NFDM was added and incubated at 37° C. for one hour. The plates were washed three times with PBS, 50 μl of alkaline phosphatase PPMP chromogenic substrate solution was added and incubated for 30 minutes, at room temperature. The Optical Density, at 550 nm, was determined by reading the plates in a microplate autoreader (Bio-Teck Instruments, model EL3 11). The percent inhibition was determined by dividing the OD550 obtained in the presence of inhibitor by the mean OD550 obtained from the wells without inhibitor and then multiplying by 100 (more particularly, [mean A550 obtained from control wells without inhibitor less A550 of background] minus [A550 obtained in presence of inhibitor less A550 of background] divided by [mean A550 obtained from control wells without inhibitor less A550 of background] times 100).
Seven to nine different recombinant β2GPI mutant proteins were used to determine the antigenic specificity of affinity purified β2GPI-dependent antiphospholipid antibody preparations from 13 different patients. Each mutant recombinant β2GPI protein was tested, in a dose dependent fashion, for its ability to inhibit affinity purified β2GPI-dependent antiphospholipid antibody from binding to full length recombinant β2GPI. The following values were also observed for domain 1 only recombinant protein (1 - - - -; see Table 2 for designations): […]

Molecule	Max (maximum inhibition observed at concentrations tested)
B1	75%
B2	30%
B3	10%

Same assay, conditions: Ab 6203; read-out: 50% (concentration to give 50% inhibition)

Molecule	IC50
B1	1 µM
B2	> 8 µM
B3	> 50 µM

Same assay, conditions: Ab 6501

Molecule	Max (maximum inhibition observed at concentrations tested)
B1	85%
B2	30%
B3	15%

Same assay, conditions: Ab 6501; read-out: 50% (concentration to give 50% inhibition)

Molecule	IC50
B1	0.8 µM
B2	> 8 µM
B3	> 50 µM

Same assay, conditions: Ab 6509

Molecule	Max (maximum inhibition observed at concentrations tested)
B1	90%
B2	80%
B3	20%

Same assay, conditions: Ab 6509; read-out: 50% (concentration to give 50% inhibition)

Molecule	IC50
B1	0.3 µM
B2	3 µM
B3	> 15 µM

Same assay, conditions: Ab 6626

Molecule	Max (maximum inhibition observed at concentrations tested)
B1	90%
B2	40%
B3	20%

Same assay, conditions: Ab 6626; read-out: 50% (concentration to give 50% inhibition)

Molecule	IC50
B1	0.8 µM
B2	> 8 µM
B3	> 50 µM

Same assay, conditions: Ab 6632

Molecule	Max (maximum inhibition observed at concentrations tested)
B1	90%
B2	60%
B3	20%

Same assay, conditions: Ab 6632; read-out: 50% (concentration to give 50% inhibition)

Molecule	IC50
B1	0.2 µM
B2	2 µM
B3	> 50 µM

Same assay, conditions: Ab 6641

Molecule	Max (maximum inhibition observed at concentrations tested)
B1	60%
B2	60%
B3	10%

Same assay, conditions: Ab 6641; read-out: 50% (concentration to give 50% inhibition)

Molecule	IC50
B1	4 µM
B2	2 µM
B3	> 15 µM

Same assay, conditions: Ab 6644

Molecule	Max (maximum inhibition observed at concentrations tested)
B1	90%
B2	50%
B3	10%

Same assay, conditions: Ab 6644; read-out: 50% (concentration to give 50% inhibition)

Molecule	IC50
B1	0.7 µM
B2	8 µM
B3	> 50 µM

Same assay, conditions: Ab 6652

Molecule	Max (maximum inhibition observed at concentrations tested)
B1	95%
B2	100%
B3	30%

Same assay, conditions: Ab 6652; read-out: 50% (concentration to give 50% inhibition)

Molecule	IC50
B1	0.3 µM
B2	0.5 µM
B3	> 15 µM

Same assay, conditions: Ab 6701

Molecule	Max (maximum inhibition observed at concentrations tested)
B1	95%
B2	30%
B3	20%

Same assay, conditions: Ab 6701; read-out: 50% (concentration to give 50% inhibition)

Molecule	IC50
B1	0.3 µM
B2	> 8 µM
B3	> 15 µM

Same assay, conditions: Ab 7008

Molecule	Max (maximum inhibition observed at concentrations tested)
B1	80%
B2	50%
B3	20%

Same assay, conditions: Ab 7008; read-out: 50% (concentration to give 50% inhibition)

Molecule	IC50
B1	0.4 µM
B2	> 8 µM
B3	> 50 µM

Same assay, conditions: Ab 7015

Molecule	Max (maximum inhibition observed at concentrations tested)
B1	90%
B2	50%
B3	10%

Same assay, conditions: Ab 7015; read-out: 50% (concentration to give 50% inhibition)

Molecule	IC50
B1	0.7 µM
B2	8 µM
B3	> 50 µM

Same assay, conditions: Ab 7101

Molecule	Max (maximum inhibition observed at concentrations tested)
B1	70%
B2	20%
B3	5%

Same assay, conditions: Ab 7101; read-out: 50% (concentration to give 50% inhibition)

Molecule	IC50
B1	3 µM
B2	> 8 µM
B3	> 50 µM

Same assay, conditions: Ab 7104

Molecule	Max (maximum inhibition observed at concentrations tested)
B1	98%
B2	90%
B3	20%

Same assay, conditions: Ab 7104; read-out: 50% (concentration to give 50% inhibition)

Molecule	IC50
B1	1 µM
B2	0.7 µM
B3	> 50 µM

What follows are molecules tested on rabbit anti-β2GPI (assay: Direct binding ELISA, nickel chelate-coated wells, rabbit antibody). Details: O.D. at 550 nm.
Protocol: as §1, §2

Molecule	Maximum O.D.
B1	1.971
B2	1.708
B3	1.993
